Assay results taken from patent US20260274955A1 (JANUX THERAPEUTICS, published 2026).

How the values were obtained:
[1] = target: T1, Anti-CD28 Fab (SEQ ID NOs: 202, 203); experiment: phage ELISA, Fab on plate;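 also: crude clonal phage supernatants added to wells pretreated with blocking buffer with or without CD28 antigen, then bound phage read out via HRP-linked anti-M13 antibody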
T1 construct: biotinylated and captured on neutravidin coated plates in the phage ELISA

[2] = target: T1, Anti-CD28 Fab (SEQ ID NOs: 202, 203); experiment: phage ELISA, Fab on plate, CD28 antigen as competitor
Procedure: After panning, phage infected bacteria were plated out and colonies picked into 96 well blocks. Clonal phage was then amplified and separated from bacterial cells via centrifugation.
Clonal phage were harvested as crude supernatants and screened via standard ELISAs. […] Prior to the addition of clonal phage, wells were incubated with blocking buffer and CD28 antigen or blocking buffer alone. Without washing or aspirating, clonal phage supernatants were then added to the wells and incubated for a short time. Wells were then washed followed by detection of bound phage using a horse radish conjugated anti-M13 antibody. Clonal phage of interest were then sent for sequence analysis.

T1 sequence (VH, as listed by the source, chain 1 of 2): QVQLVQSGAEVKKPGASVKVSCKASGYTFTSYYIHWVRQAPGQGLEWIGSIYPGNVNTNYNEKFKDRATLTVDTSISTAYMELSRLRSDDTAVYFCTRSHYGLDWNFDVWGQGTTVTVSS
T1 sequence (VL, as listed by the source, chain 2 of 2): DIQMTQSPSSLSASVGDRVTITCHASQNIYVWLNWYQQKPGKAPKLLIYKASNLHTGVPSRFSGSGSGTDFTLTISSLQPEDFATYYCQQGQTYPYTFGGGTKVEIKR

Binder	Anti-CD28 Fab (SEQ ID NOs: 202, 203) signal [1]	Anti-CD28 Fab signal in the presence of CD28 [2]
YCDGHSPAFIQKCL [Phage-606]	1.42	0.08
YCDGHSLEYIDKCM [Phage-607]	1.42	0.09
YCQGHSPNYITKCF [Phage-608]	1.41	0.06
YCDGHAPEYLGKCL [Phage-609]	1.41	0.06
YCAGHAEEYLEKCL [Phage-610]	1.41	0.15
YCDGHSPEYMQKCL [Phage-617]	1.4	0.53
YCDGHSHEYMQKCL [Phage-611]	1.41	0.06
YCDGHLQEYMQKCL [Phage-627]	1.38	0.06
YCDGHLPEYMQKCL [Phage-643]	1.35	0.08
YCAGHSAEYMSKCL [Phage-612]	1.41	0.07
YCDGHLMEYKAKCL [Phage-613]	1.41	0.06
YCEGHSAEYIAKCL [Phage-614]	1.41	0.09
YCDGHSAEYIAKCL [Phage-662]	1.31	0.05
YCEGHSAEYIGKCL [Phage-738]	1.08	0.07
YCDGHSPEHMGKCL [Phage-615]	1.4	0.09
YCDGHDARYMEKCL [Phage-616]	1.4	0.06
YCNGHLPEYMSKCI [Phage-618]	1.4	0.07
YCSGHLPEYMDKCL [Phage-619]	1.39	0.07
YCDGHSLEYMLKCL [Phage-620]	1.39	0.07
YCEGHHPWYVQKCL [Phage-621]	1.39	0.07
YCDGHAEQYMSKCL [Phage-623]	1.38	0.07
YCDGLFQLYMMKCL [Phage-624]	1.38	0.07
YCDGHAPEYIQKCL [Phage-625]	1.38	0.06
YCEGHLDEYLQKCL [Phage-626]	1.38	0.07
YCDGHQPQYMSKCL [Phage-628]	1.38	0.09
YCDGHLSEYIGKCL [Phage-629]	1.37	0.06

Binder	Anti-CD28 Fab (SEQ ID NOs: 202, 203) signal [1]	Anti-CD28 Fab signal in the presence of CD28 [2]
YCEGHSQLYMAKCL [Phage-630]	1.37	0.07
YCDGHSETYLWKCL [Phage-631]	1.37	0.1
YCEGHLPAYMGKCI [Phage-632]	1.37	0.09
YCAGHTSEYMSKCL [Phage-634]	1.36	0.07
YCDGHMKEYMLKCL [Phage-635]	1.36	0.06
YCDGHVKEYMYKCL [Phage-636]	1.36	0.06
YCDGHLALYMWKCL [Phage-637]	1.36	0.17
YCDGHLSIYMTKCL [Phage-638]	1.36	0.07
YCDGHMVQYMAKCL [Phage-639]	1.36	0.07
YCDGHSEEFMWKCL [Phage-640]	1.35	0.06
YCEGHMEKYMEKCL [Phage-641]	1.35	0.11
YCDGHLPRYMAKCL [Phage-642]	1.35	0.1
YCDGHLPDYMAKCL [Phage-712]	1.17	0.07
YCDGHLLQYMHKCL [Phage-644]	1.35	0.07
YCDGHSKEYMAKCL [Phage-646]	1.34	0.06
YCEGHSPEYMHKCL [Phage-647]	1.34	0.09
YCDGHSEAYIEKCL [Phage-648]	1.34	0.06
YCAGHASEYMAKCL [Phage-650]	1.33	0.08
YCDGHAPQYMRKCL [Phage-651]	1.33	0.08
YCDGHLPLYMQKCF [Phage-652]	1.33	0.1
YCEGHLPMYMQKCL [Phage-660]	1.31	0.08
YCAGHLPMYMQKCL [Phage-653]	1.33	0.08
YCEGHLPMYMTKCL [Phage-686]	1.25	0.06
YCSEHQIIFIQKCL [Phage-654]	1.32	0.08
YCEGHLEIYLAKCL [Phage-655]	1.32	0.07
YCAGHALEYMGKCL [Phage-657]	1.32	0.06
